This note sets out measurements from paper PMC9431274, “Stenotrophomonas maltophilia from Nepal Producing Two Novel Antibiotic Inactivating Enzymes, a Class A β-Lactamase KBL-1 and an Aminoglycoside 6′-N-Acetyltransferase AAC(6′)-Iap” (Microbiology Spectrum, 2022).

The target in one series is T1, KBL-1 (Stenotrophomonas maltophilia, UniProt A0A7I8E9L1).
T1 construct: gene blaKBL-1; full length 286 residues; expressed without signal peptide in E. coli BL21-CodonPlus (pET28a); His-tag removed by TEV
T1 sequence (A0A7I8E9L1 entry or part of it): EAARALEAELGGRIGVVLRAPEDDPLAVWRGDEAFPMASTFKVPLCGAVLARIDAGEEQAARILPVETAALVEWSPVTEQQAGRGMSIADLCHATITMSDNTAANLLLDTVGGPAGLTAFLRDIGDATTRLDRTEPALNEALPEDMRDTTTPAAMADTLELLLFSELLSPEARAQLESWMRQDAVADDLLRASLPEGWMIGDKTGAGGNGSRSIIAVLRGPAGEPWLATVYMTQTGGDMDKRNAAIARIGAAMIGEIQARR
The series is described as follows: penicillin G hydrolysis, UV spectrophotometry. In kind it is biochemical.

In series [1] the test system is CO/N=C(\C(=O)N[C@@H]1C(=O)N2C(C(=O)O)=C(COC(C)=O)CS[C@H]12)c1csc(N)n1. The series is described as follows: initial rate of hydrolysis, UV spectrophotometry, Lineweaver-Burk. The series is classed as biochemical, Stenotrophomonas maltophilia. Conditions: 37°C, 50 mM Tris-HCl pH 7.4, 0.3 M NaCl. An excerpt: (§1) initial rate of hydrolysis, UV spectrophotometry, Lineweaver-Burk on KBL-1

In series [2] the test system is CO[C@@]1(NC(=O)C(C(=O)O)c2ccc(O)cc2)C(=O)N2C(C(=O)O)=C(CSc3nnnn3C)CO[C@@H]21. The description is as above. The series is classed as biochemical, Stenotrophomonas maltophilia. The settings on record: 37°C, 50 mM Tris-HCl pH 7.4, 0.3 M NaCl.
From the text: as §1

Series [3] concerns CC(C)(O/N=C(\C(=O)N[C@@H]1C(=O)N2C(C(=O)[O-])=C(C[n+]3ccccc3)CS[C@H]12)c1csc(N)n1)C(=O)O. The description is as above. The series is classed as biochemical, Stenotrophomonas maltophilia. Conditions: 37°C, 50 mM Tris-HCl pH 7.4, 0.3 M NaCl.
From the text: as §1

For series [4], the system named is CO[C@@]1(NC(=O)Cc2cccs2)C(=O)N2C(C(=O)O)=C(COC(N)=O)CS[C@@H]21. The series is described as above. The settings on record: 37°C, 50 mM Tris-HCl pH 7.4, 0.3 M NaCl. The series is classed as biochemical, Stenotrophomonas maltophilia.
From the text: as §1

In series [5] the test system is CO/N=C(\C(=O)N[C@@H]1C(=O)N2C(C(=O)[O-])=C(C[N+]3(C)CCCC3)CS[C@H]12)c1csc(N)n1. The description is as above. The series is classed as biochemical, Stenotrophomonas maltophilia. Conditions: 37°C, 50 mM Tris-HCl pH 7.4, 0.3 M NaCl.
From the text: as §1

Series [6] has as its system CC1(C)S[C@@H]2[C@H](NC(=O)[C@H](N)c3ccc(O)cc3)C(=O)N2[C@H]1C(=O)O. The series is described as above. The series is classed as biochemical, Stenotrophomonas maltophilia. The settings on record: 37°C, 50 mM Tris-HCl pH 7.4, 0.3 M NaCl.
From the text: as §1

For series [7], the system named is CC1(C)S[C@@H]2[C@H](NC(=O)Cc3ccccc3)C(=O)N2[C@H]1C(=O)O. Described as above. The series is classed as biochemical, Stenotrophomonas maltophilia. The settings on record: 37°C, 50 mM Tris-HCl pH 7.4, 0.3 M NaCl.
From the text: as §1

Series [8] has as its system C[C@@H](O)[C@H]1C(=O)N2C(C(=O)O)=C(S[C@@H]3CN[C@H](C(=O)N(C)C)C3)[C@H](C)[C@H]12. The series is described as above. The series is classed as biochemical, Stenotrophomonas maltophilia. The settings on record: 37°C, 50 mM Tris-HCl pH 7.4, 0.3 M NaCl.
From the text: as §1

The test system of series [9] is CCN1CCN(C(=O)N[C@@H](C(=O)N[C@@H]2C(=O)N3[C@@H]2SC(C)(C)[C@@H]3C(=O)O)c2ccccc2)C(=O)C1=O. Described as above. In kind it is biochemical, Stenotrophomonas maltophilia. The settings on record: 37°C, 50 mM Tris-HCl pH 7.4, 0.3 M NaCl.
From the text: as §1

Series [10] relates to CC1=C(C(=O)O)N2C(=O)[C@@H](NC(=O)[C@H](N)C3=CCC=CC3)[C@H]2SC1. The series is described as above. In kind it is biochemical, Stenotrophomonas maltophilia. The settings on record: 37°C, 50 mM Tris-HCl pH 7.4, 0.3 M NaCl.
From the text: as §1

The subject of series [11] is CC1(C)S[C@@H]2[C@H](NC(=O)[C@H](N)c3ccccc3)C(=O)N2[C@H]1C(=O)O. Described as above. The series is classed as biochemical, Stenotrophomonas maltophilia. The settings on record: 37°C, 50 mM Tris-HCl pH 7.4, 0.3 M NaCl.
From the text: as §1

Series [12] deals with C[C@@H](O)[C@H]1C(=O)N2C(C(=O)O)=C(SCCN=CN)C[C@H]12. Described as above. The series is classed as biochemical, Stenotrophomonas maltophilia. Conditions: 37°C, 50 mM Tris-HCl pH 7.4, 0.3 M NaCl.
From the text: as §1

One may read the IC50 as the concentration at which inhibition is half-maximal. Read a low IC50 as greater potency. The compound `O=C(O)[C@H]1/C(=C/CO)O[C@@H]2CC(=O)N21` [clavulanic acid] displayed a 50% inhibitory concentration (IC50) against KBL-1 of 210 nM.
The Km is the substrate concentration at which the rate is half of its maximum. A word on the kcat: it is the maximal rate divided by the concentration of active sites. Broadly, the kcat/Km is the turnover number divided by the Michaelis constant. For KBL-1 (Stenotrophomonas maltophilia), the Km in series [1] was found to be 31 ± 5 µM; in series [2] it was 49 ± 4 µM; in series [3] it was 45 ± 12 µM; in series [4], 57 ± 6 µM; in [5] it was 79 ± 2 µM; in series [6] it was 23 ± 4 µM. In addition, the Michaelis-Menten constant (Km) in series [7] is 21 ± 5 µM; in [8], 39 ± 6 µM; in [9] it was 52 ± 7 µM; in series [10] it was 605 ± 45 µM; in series [11], 37 ± 8 µM; in series [12] it was 85 ± 7 µM. Further, the kcat in series [1] came to 1.33 ± 0.053 s⁻¹; in series [2], 0.392 ± 0.009 s⁻¹; in series [3], 0.013 ± 0.003 s⁻¹; in [4] it was 0.032 ± 0.002 s⁻¹; in [5], 0.751 ± 0.029 s⁻¹; in series [6], 10 ± 0.4 s⁻¹. Also, the kcat in series [7] is 24 ± 2 s⁻¹; in series [8] it was 0.443 ± 0.056 s⁻¹; in series [9] it was 22 ± 1 s⁻¹; in [10] it was 2.23 ± 0.13 s⁻¹; in series [11] it was 19 ± 1 s⁻¹; in [12], 1.13 ± 0.143 s⁻¹. In addition, the kcat/Km in series [1] was found to be 44000 M⁻¹ s⁻¹; in series [2] it was 8000 M⁻¹ s⁻¹; in series [3], 300 M⁻¹ s⁻¹; in series [4], 1000 M⁻¹ s⁻¹; in [5], 10000 M⁻¹ s⁻¹; in series [6], 455000 M⁻¹ s⁻¹. In addition, the kcat/Km in series [7] came to 1.17e+06 M⁻¹ s⁻¹; in series [8] it was 11000 M⁻¹ s⁻¹; in series [9] it was 422000 M⁻¹ s⁻¹; in series [10], 4000 M⁻¹ s⁻¹; in series [11] it was 532000 M⁻¹ s⁻¹; in series [12] it was 13000 M⁻¹ s⁻¹.
`CC1(C)[C@H](C(=O)O)N2C(=O)C[C@H]2S1(=O)=O` [sulbactam]: inhibition on KBL-1 was half-maximal at 1200 nM (IC50).
